Measured values published in publication PMC9609667, “Serendipitous Discovery of a Competitive Inhibitor of FraB, a Salmonella Deglycase and Drug Target” (Pathogens, 2022).
Values belong to the compound of their own block, whether it stands above or below them.

Key:
[1] = target: FraB, a Salmonella deglycase (Salmonella); test: native MS; 3 uM FraB or FrlB mixed with 150, 300 or 450 uM 2-deoxy-6-P-GA; 200 mM ammonium acetate (pH adjusted to 7.4 for FraB); mixed at 25 °C, incubated 30 min at room temperature; nano-ESI, Q Exactive UHMR Orbitrap
[2] = target: FrlB deglycase (Salmonella) (Salmonella); test: as above
FraB = target: T1, FraB (Salmonella enterica, UniProt Q8ZLD0); test: G6PDH-coupled deglycase assay, Michaelis-Menten analysis; binding confirmed by native MS; type: biochemical
T1 construct: gene STM3601; 325-aa construct, N-terminal His6-tag

FrlB = target: T2, FrlB (Salmonella enterica, UniProt Q8ZJX7); test: native mass spectrometry (dimer with one or two ligands); about […] inhibition at […] in coupled assay; type: binding
T2 construct: gene STM4540; recombinant FrlB, His6 tag removed
T2 sequence (Q8ZJX7 1-343): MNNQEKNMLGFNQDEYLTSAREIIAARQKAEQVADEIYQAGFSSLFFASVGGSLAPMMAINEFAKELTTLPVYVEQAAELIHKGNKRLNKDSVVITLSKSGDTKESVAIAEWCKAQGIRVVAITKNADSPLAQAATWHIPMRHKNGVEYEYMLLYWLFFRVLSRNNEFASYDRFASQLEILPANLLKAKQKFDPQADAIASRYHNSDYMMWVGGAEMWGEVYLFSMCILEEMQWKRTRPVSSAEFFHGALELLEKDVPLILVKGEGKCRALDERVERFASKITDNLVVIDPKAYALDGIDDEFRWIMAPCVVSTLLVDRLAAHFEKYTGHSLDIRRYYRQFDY

stoichiometry N [1]: 2
Compound: FraB, a Salmonella deglycase (enzyme)

stoichiometry N [2]: 2
Compound: FrlB deglycase (Salmonella) (enzyme)

Compound: O=C(O)C[C@@H](O)[C@H](O)[C@H](O)COP(=O)(O)O [2-deoxy-6-P-GA, 2-deoxy-6-phosphogluconate]
Ki (FraB): 3.3 µM
native mass spectrometry (dimer with one or two ligands); about 50% inhibition a (FrlB): These results confirm the direct interaction of 2-deoxy-6-P-GA to FraB and FrlB.
